Results as given in the supplement of paper PMC9170038.

Test system: MS2 coat protein
Test: apparent KD of MS2 coat protein; higher = weaker reporter binding
Details: Eterna round: R107
Procedure, shortened: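 Designed RNA switches were transcribed on-chip from Illumina sequencing clusters and titrated with SNAP-549-labelled MS2 coat protein in twofold steps from 0.7 or 1.5 nM up to 3 µM. Each step lasted 0.8–1.5 h at first and 10–20 min by the end, in 100 mM Tris-HCl pH 7.5, 80 mM KCl and 4 mM MgCl2, without or with constant ligand. Apparent KD is the median, for each design, of fits to normalised cluster binding curves.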

[1] = input ligand: theophylline 20 uM
[2] = input ligand: theophylline 2 mM
[3] = input ligand: tryptophan 2.4 mM

Row | Sequence | apparent KD of MS2 coat protein (input ligand: arginine 13.2 mM) [nM] | apparent KD of MS2 coat protein [1] [nM] | apparent KD of MS2 coat protein [2] [nM] | apparent KD of MS2 coat protein [3] [nM] | apparent KD of MS2 coat protein (input ligand: none) [nM]
1 | UAAUAGAUUACGGCCGCCACUGAAGUGGACUUUAUGAGCAGGAUUCACAUGAGGAUCACCCAUGUCAGGACCGGGUACGUCCAUA [theeternabot_exclusion_MS2_Trp_B_33] | 25.6 | 44 | 44.3 |  | 
2 | UACCGGUGACUCGAUACCAGUCCUCUAAAAUACAUGAGGAUCACCCAUGUAACCUUCCCAGACCCUUGGCAGCGACACAUGGAUA [theeternabot_sameState_MS2_Theo_B_49] | 97.7 | 176 |  | 147 | 
3 | UAGGACAUGAGGAUCACCCAUGUUGUACGGCGAGGACCGGUACGGCCGCCACUCGAGGCGUAAGUAGUAAAGAAUCUGAUUCAAU [theeternabot_sameState_MS2_Trp_A_4] | 13.7 | 40.9 | 20.7 |  | 
4 | UAUAAACAGCCUGGUUACUCGUCGCGCUUGCGAGGACCGGUACGGCCGCCACUCGACCCAUCACAUGAGGAUCACCCAUGUCCCA [theeternabot_exclusion_MS2_Trp_A_25] | 29.4 | 45 | 38.6 |  | 
5 | UAUACAUGAGGAUCACCCAUGUGCCAUGAUACCAGACAUGAAAAUGUCCCUUGGCAGCAUGGUGAUUGUAUAGCGGGAAACCCGA [Utechov] | 81.3 | 261 |  | 138 | 
6 | UAUAUAGAUGGAAGUUCUAUAGAUGCAGAAGGAGCGUAGGAAACUACAGGUAGGUCGCUGAGGUACAUGAGGAUCACCCAUGUAG [SSArg A #20 Slice of Pi] | 14.3 | 40.5 | 26.4 | 22.5 | 26.4
7 | UAUAUAUAGAUGGAUACCAGCAGAGAAAACGUUUAUCCUAACAUGAGGAUCACCCAUGUAUGCCCUUGGCAGCUGUUUAUAUAUA [8.I] | 18.9 | 31.5 |  | 22.6 | 
8 | UAUAUAUAUCACGAACUGUGGUGUAUGUCUCGAGGACCGGUACGGCCGCCACUCGCGCGGCCUCACAUGAGGAUCACCCAUGUUG [XTryp A #6] | 27.9 | 73.7 | 78.5 |  | 
9 | UAUCCACAUGAGGAUCACCCAUGUAAGGAAGGAGCGGUGAAUGAACCAGGUAGGUCGCCUUGGUGAGGAUCAUCUAUGGAUUCGU [Exclusion - Arginine A (Freestyle 10)] | 28 | 65.9 | 43.5 | 41.8 | 36.8
10 | UAUCCACAUGAGGAUCACCCAUGUUAGGAAGGAGCGGUGAAUGCACCAGGUAGGUCGCCUAGCUGAGGACUGUCGGUGGAUUCGU [Exclusion - Arginine A (Freestyle 19)] | 33 | 47 | 53 | 40.3 | 39.4
11 | UCACAUGAGGAUCACCCAUGUACAGGCGAUACCAGCCGUACAUUGGGCCCUUGGCAGCGCACCGAGACCUUUAUAAGCACCUCGG [Zaoranorre] | 67 | 207 |  | 15.7 | 
12 | UCAGAUGAGGCGGCCGCCACUCGCGGAUAACGAUAGAUUAACAUGAGGAUCACCCAUGUGUCAUGGAGGACCGGGCCCAUGACAU [kjmullin] | 23.8 | 42.3 | 35.1 |  | 
13 | UCAGUGCAGGGAAGGAGCGGGUACAUGAGGAUCACCCAUGUGCAAGUGGUGAGCGUCCGUGCCCAGGUAGGUCGCCCAGCCUGGU [Atarteedon] | 69.2 | 235 | 198 | 108 | 121
14 | UCCUCCUCCGGAAGGAGGAGGAGUUGCGAUACCAGCCCGGAAACGGGCCCUUGGCAGCGCACAUGAGGAUCACCCAUGUCAUGUU [#1 Exclusion - Theophylline A Attempt #7 (HarryS)] | 16.7 | 26.3 |  | 18.8 | 
15 | UCGCUCUGGGUGAGAUCCGGAGAUAUGGAAGGAGCGCUGAUUCCAGCAGGUAGGUCGCCAACGGACAUGAGGAUCACCCAUGUAC [Same State - Arginine A (Freestyle 11)] | 36.6 | 60.4 | 55.5 | 43.1 | 46.9
